Experimental data published in publication PMC4834876 (Journal of molecular biology, 2016).

Biological target: F-actin (filamentous actin) from rabbit muscle (rabbit, UniProt P68135 1-377)
Test: co-sedimentation

B1: EB1_(248), activated fragment of EB1 lacking the auto-inhibitory acidic tail (domain or fragment)
chain: MAVNVYSTSVTSDNLSRHDMLAWINESLQLNLTKIEQLCSGAAYCQFMDMLFPGSIALKKVKFQAKLEHEYIQNFKILQAGFKRMGVDKIIPVDKLVKGKFQDNFEFVQWFKKFFDANYDGKDYDPVAARQGQETAVAPSLVAPALNKPKKPLTSSSAAPQRPISTQRTAAAPKAGPGVVRKNPGVGNGDDEAAELMQQVNVLKLTVEDLEKERDFYFGKLRNIELICQENEGENDPVLQRIVDILYA
A Kd of ~7 µM was found for B1 in this work.
